Laboratory results published in article PMC5339848.

Assays:
[1] = biological target: AP1M1 (mu subunit of the AP1 complex) (UniProt Q9BXS5); assay: competitive binding with synthetic peptides, in vitro; settings: reference: unphosphorylated peptide; sites Y8
[2] = biological target: AP2M1 (mu subunit of the AP2 complex) (UniProt Q96CW1); assay: as above; settings: reference: unphosphorylated peptide; sites Y8

With “mATG9 1-18 (from UniProt Q7Z3C6) pY8 peptide” the “binding against the reference” value [1] was “stronger” and the “binding against the reference” value [2] was “stronger”.
